This is an account of results in publication PMC9177663, “Substrate-dependent modulation of the leukotriene A4 hydrolase aminopeptidase activity and effect in a murine model of acute lung inflammation” (Scientific Reports, 2022).

In general, Km refers to the substrate concentration at which the rate is half of its maximum. A word on the kcat: it is the number of substrate molecules converted per active site and unit of time at saturation. What is called kcat/Km is the second-order rate constant that governs catalysis at low substrate concentration.

Data set [1] deals with T1, leukotriene A4 hydrolase (LTA4H) (Homo sapiens, UniProt P09960).
T1 construct: N-terminal (His)6- and Xpress-tag
T1 sequence (P09960 2-611): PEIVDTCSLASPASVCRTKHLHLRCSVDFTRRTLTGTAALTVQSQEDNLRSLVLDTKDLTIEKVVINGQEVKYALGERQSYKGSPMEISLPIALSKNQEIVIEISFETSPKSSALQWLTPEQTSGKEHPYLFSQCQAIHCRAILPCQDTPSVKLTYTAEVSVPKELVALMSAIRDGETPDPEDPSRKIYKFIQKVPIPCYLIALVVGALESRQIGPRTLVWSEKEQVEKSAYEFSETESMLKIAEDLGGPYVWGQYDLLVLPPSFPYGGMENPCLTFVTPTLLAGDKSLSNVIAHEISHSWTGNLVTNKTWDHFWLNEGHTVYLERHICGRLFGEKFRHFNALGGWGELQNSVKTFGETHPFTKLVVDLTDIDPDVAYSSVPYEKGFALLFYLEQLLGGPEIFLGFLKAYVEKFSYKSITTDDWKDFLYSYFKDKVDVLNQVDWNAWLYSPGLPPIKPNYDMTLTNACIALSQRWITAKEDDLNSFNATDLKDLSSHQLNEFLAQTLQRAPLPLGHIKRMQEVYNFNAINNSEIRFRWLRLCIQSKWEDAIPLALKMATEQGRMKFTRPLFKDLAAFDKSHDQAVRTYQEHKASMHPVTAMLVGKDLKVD
Nature of the data set: X-ray co-crystal structure of ternary LTA4H:4MDM:OPB-Pro complex, […] Å. The format is binding.

Substrate in the data set “purified protein”: N=C(N)NCCC[C@H](N)C(=O)Nc1ccc([N+](=O)[O-])cc1
Nature of the data set: purified protein. To be noted: Zn2+ LTA4H AP substrate site; cannot bind simultaneously with 4MDM.

Substrate in data set [2]: C[C@H](N)C(=O)Nc1ccc([N+](=O)[O-])cc1
Nature of the data set: Michaelis-Menten hydrolysis kinetics of purified LTA4H at A405 (KM). In kind it is biochemical, Homo sapiens. To be noted: Zn2+ LTA4H AP substrate site.

Substrate in data set [3]: O=C(Nc1ccc([N+](=O)[O-])cc1)[C@@H]1CCCN1
The description is as above. The format is biochemical, Homo sapiens. To be noted: Zn2+ LTA4H AP substrate site.

In the case of `O=C(O)[C@@H]1CCCN1C(=O)CCC(=O)N1CCCC1` [OPB-Pro, N-(4-oxo-4-pyrrolidinyl-butanoyl)-proline], the “X-ray co-crystal structure of ternary LTA4H:4MDM:OPB-Pro complex, 2.8 Å” value in data set [1] is “The OPB-Pro was bound in the AP active site with its prolyl carbonyl group interacting with the zinc atom”.

B1: leukotriene A4 hydrolase (LTA4H) (Homo sapiens) (protein)
chain: PEIVDTCSLASPASVCRTKHLHLRCSVDFTRRTLTGTAALTVQSQEDNLRSLVLDTKDLTIEKVVINGQEVKYALGERQSYKGSPMEISLPIALSKNQEIVIEISFETSPKSSALQWLTPEQTSGKEHPYLFSQCQAIHCRAILPCQDTPSVKLTYTAEVSVPKELVALMSAIRDGETPDPEDPSRKIYKFIQKVPIPCYLIALVVGALESRQIGPRTLVWSEKEQVEKSAYEFSETESMLKIAEDLGGPYVWGQYDLLVLPPSFPYGGMENPCLTFVTPTLLAGDKSLSNVIAHEISHSWTGNLVTNKTWDHFWLNEGHTVYLERHICGRLFGEKFRHFNALGGWGELQNSVKTFGETHPFTKLVVDLTDIDPDVAYSSVPYEKGFALLFYLEQLLGGPEIFLGFLKAYVEKFSYKSITTDDWKDFLYSYFKDKVDVLNQVDWNAWLYSPGLPPIKPNYDMTLTNACIALSQRWITAKEDDLNSFNATDLKDLSSHQLNEFLAQTLQRAPLPLGHIKRMQEVYNFNAINNSEIRFRWLRLCIQSKWEDAIPLALKMATEQGRMKFTRPLFKDLAAFDKSHDQAVRTYQEHKASMHPVTAMLVGKDLKVD
notes: N-terminal (His)6- and Xpress-tag
B1: the Km in the data set “purified protein” was 18790 ± 2730 µM; in data set [2] it was 1600 ± 120 µM; in data set [3], 840 ± 50 µM. Further, the turnover number (kcat) is 24.4 s⁻¹ in the data set “purified protein”, 1.74 ± 0.07 s⁻¹ in data set [2] and 0.19 ± 0.01 s⁻¹ in data set [3]. Moreover, the results for the kcat/Km (in “purified protein”; in data set [2]; in data set [3]) were 1300 M⁻¹ s⁻¹, 1080 M⁻¹ s⁻¹ and 230 M⁻¹ s⁻¹, respectively.
